Results from patent US20220282255, “APTAMER FOR TGF-BETA1 AND USE OF SAME” (RIBOMIC INC., published 2022).
Numbering of substitutions follows the chain as printed.

Experiments:
TGF-β1 [1] = target: T1, TGF-β1 (Homo sapiens, UniProt P01137 P01137:279-390); assay: SPR; settings: tags: Recombinant Human TGF-β1, Peprotech; chain copies: 2 (homodimer, inferred)
TGF-β1 [2] = target: T1, TGF-β1; assay: SPR; +; settings: tags: Recombinant Human TGF-β1, Peprotech; chain copies: 2 (homodimer, inferred)
TGF-β1 [3] = target: T1, TGF-β1; assay: cell_activity; SBE-luciferase HEK293, 80 pM:20 nM; settings: tags: Recombinant Human TGF-β1, Peprotech; chain copies: 2 (homodimer, inferred)
Experimental: (§1) Whether the nucleic acids of SEQ ID NOs: 4-13, 17-22, 26-28 inhibit the activity of TGF-β1 was evaluated by a cell assay system that monitors Smad signaling pathway known to be activated by the stimulation of TGF-β. To be specific, photinus luciferase equipped with SBE (Smad-binding element) in the promoter region was used as a reporter (pGL4.48[luc2P/SBE/Hygro] Vector, Promega KK). Together with this SBE-induced photinus luciferase reporter plasmid, a renillaluciferase expression plasmid (pGL4.74[hRluc/TK] Vector, Promega KK) was mixed at a ratio of 20:1 as a standardized control for transfection efficiency, and transfected into HEK293 cells. The transfected HEK293 cells were re-seeded in a 96-well plate and cultured until confluent. TGF-β1 and a mixture of nucleic acid aptamers of SEQ ID NOs: 4-13, 17-22, 26-28 synthesized using T7 RNA polymerase (Y639F) were added thereto to respective final concentrations of 80 pM, 20 nM, and the cells were cultured for 3 hr. Thereafter, the expression levels of photinus luciferase and renillaluciferase were confirmed using Dual-Luciferase (registered trade mark) Reporter Assay System (Promega KK). The measurement value of photinus luciferase in each sample was corrected with the measured value of renillaluciferase, and the relative expression level of each sample was calculated by setting the ratio of photinus luciferase and renillaluciferase in a sample free of addition of TGF-β1 as 1. […] When a nucleic acid pool of 35N, 40N or 50N (SEQ ID NO: 14, 1, 23) was used as a negative control and a known TGF-β antibody (R&D, MAB1835) was used as a positive control, the same treatment and measurement were performed.

TGF-β1 [4] = target: T1, TGF-β1; assay: SPR; receptor-binding inhibition, 10 nM:30 nM; settings: tags: Recombinant Human TGF-β1, Peprotech; chain copies: 2 (homodimer, inferred)
Experimental: Measurement of Inhibitory Activity of Aptamer Against TGF-β1-2 Whether or not the nucleic acids of SEQ ID NOs: 6, 9, 19, 21, 26 inhibit the binding of TGF-β1 to the TGF-β receptor was evaluated by surface plasmon resonance method. For the measurement, Biacore T200 manufactured by GE Healthcare was used, and the measurement was performed by the method shown below. About 1500 RU of protein A was immobilized on the surface of a sensor chip of CM4 chip by using an amine coupling kit. 20 μL of Fc fusion TRII receptor (R&D) adjusted to 30 nM was injected as an analyte at a flow rate of 20 μL/min. As a result, the Fc fusion TRII receptor was immobilized on the surface of the sensor chip of the CM4 chip via protein A. Furthermore, a mixed solution of TGF-β1 (4 nM) or TGF-β1 (10 nM), and nucleic acid (30 nM) was injected. Solution A was used as the running buffer. Based on the RU value of a sample injected with TGF-β1 alone and the RU value before injection of TGF-β1, the effect of suppressing an increase in the RU value when TGF-β1 was injected in the presence of nucleic acid was calculated as the effect of inhibiting the binding of TGF-β1 to the TRII receptor.

TGF-β1 [5] = target: T1, TGF-β1; assay: cell_activity; 80 pM:20 nM; settings: tags: Recombinant Human TGF-β1, Peprotech; chain copies: 2 (homodimer, inferred); G4 (predicted)
Experimental: as §1
Whether or not these nucleic acids inhibit the activity of TGF-β1 was evaluated by a luciferase reporter assay similar to that in Example 4, as in Example 1.

T1 sequence (P01137 279-390, one chain of several): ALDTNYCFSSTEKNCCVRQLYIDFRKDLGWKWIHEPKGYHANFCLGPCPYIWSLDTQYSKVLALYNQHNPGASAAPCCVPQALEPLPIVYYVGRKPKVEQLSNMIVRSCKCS

B1: SEQ ID NO: 8 (ssRNA)
RNA: GGGAUCCGCAUCUAGAGUACGAUGUGCUUGUGCUGAAAUUAGAUUUCGCCGACUUUCCCUAACGUCUACUGAAGCUAUCA
modifications: 2'-F all pyrimidines (U,C)
- qualitative (TGF-β1 [1]): ≤ 10 RU

B2: SEQ ID NO: 13 (ssRNA)
RNA: GGGAUCCGCAUCUAGAGUACACUAGUCACAUUGCGUGUACAUUACUCUGCGCAAUCGAUAAACGUCUACUGAAGCUAUCA
modifications: 2'-F all pyrimidines (U,C)
- binding result (TGF-β1 [2]): binds

B3: SEQ ID NO: 7 (ssRNA)
RNA: GGGAUCCGCAUCUAGAGUACGAAUAGUAAGGGAAUGACUCUCGGACCAAUGUAUUGCUAUAACGUCUACUGAAGCUAUCA
modifications: 2'-F all pyrimidines (U,C)
- qualitative (TGF-β1 [1]): ≤ 10 RU

B4: SEQ ID NO: 6 (ssRNA)
RNA: GGGAUCCGCAUCUAGAGUACUUGUAUAAGUGGAGGGCGAGACUUGGGAGGGGCGAAUUGAAACGUCUACUGAAGCUAUCA
modifications: 2'-F all pyrimidines (U,C)
- activity (TGF-β1 [3]): 98 % inhibition
- binding signal (TGF-β1 [4]): 75 % inhibition

B5: SEQ ID NO: 17 (ssRNA)
RNA: GGGAGAACUUGGAGCUGAUGUCUGGAGUCCCCAUAUAUCACGUACAGUGUAGUGCGACGUCAGUC
modifications: 2'-F all pyrimidines (U,C)
- binding result (TGF-β1 [2]): binds

B6: SEQ ID NO: 12 (ssRNA)
RNA: GGGAUCCGCAUCUAGAGUACCUAGAGGUGACUUGGGACGCGAGUUAUAAGGGAAUAGUCCAACGUCUACUGAAGCUAUCA
modifications: 2'-F all pyrimidines (U,C)
- qualitative (TGF-β1 [1]): ≤ 10 RU

B7: SEQ ID NO: 10 (ssRNA)
RNA: GGGAUCCGCAUCUAGAGUACGAUGCAUGUUUUUAUAAAGUAUUGUUAUGUAAUGCAUCAAAACGUCUACUGAAGCUAUCA
modifications: 2'-F all pyrimidines (U,C)
- qualitative (TGF-β1 [1]): ≤ 10 RU

B8: SEQ ID NO: 27 (ssRNA)
RNA: GGGAAUGCACUAGUGUUCAACAUUUAGCAACACAAGUCGUCCCCCACGGCAAGCAGUCCUCAAUCCUGACAAGCUUGCACGUCGAGUCAG
modifications: 2'-F all pyrimidines (U,C)
- binding result (TGF-β1 [2]): binds

B9: SEQ ID NO: 9 (ssRNA)
RNA: GGGAUCCGCAUCUAGAGUACCAUAAGGGUGGGGAGACUUGGGAGAGGGCAAAGAAGACUAAACGUCUACUGAAGCUAUCA
modifications: 2'-F all pyrimidines (U,C)
- activity (TGF-β1 [3]): 80 % inhibition
- binding signal (TGF-β1 [4]): 70.2 % inhibition

B10: SEQ ID NO: 38 (ssRNA)
RNA: GGGAGAACUUGGAGCUCCUGAAUAAGGGUGGGGAGACUUGUGGAGGGCAAGAGUGCGACGUCAGUC
modifications: 2'-F all pyrimidines (U,C)
- activity (TGF-β1 [5]): 100 % inhibition

B11: SEQ ID NO: 40 (ssRNA)
RNA: B10 RNA with U29A, A50G, G51A
modifications: 2'-F all pyrimidines (U,C)
- activity (TGF-β1 [5]): 100 % inhibition

B12: SEQ ID NO: 26 (ssRNA)
RNA: GGGAAUGCACUAGUGUUCAACCCCGACCAAUAGCAGCCCGUCUUUAACUAUUGGAAUCGCAUACGGGCCCAAGCUUGCACGUCGAGUCAG
modifications: 2'-F all pyrimidines (U,C)
- activity (TGF-β1 [3]): 81 % inhibition
- binding signal (TGF-β1 [4]): 84.3 % inhibition
